Legend:
[1] = Dissolution of protein Rantes in organic medium (DCM/MeOH), HPLC of supernatant; format: physicochemical; conditions: for presence of protein in HPLC trace of supernatant: centrifuged
Procedure: Two samples of 0.2 mg each of the folded protein Rantes were taken. One sample was used as standard and dissolved in a fixed volume (300 ul) of water/acetonitrile 50% v/v and 30 ul where injected onto HPLC (FIG. 6, HPLC section A) .
The second sample was suspended in a mixture of DCM/MeOH 70%30% VN, (300 ul). The suspension with solid particles was centrifuged and the surnatant injected onto HPLC volume (30 ul).
Then, 2.0 mg of Nonactine were added and the mixture was vortexed. […] Then, the mixture was centrifuged and 30 ul of the supernatant were injected onto HPLC. […] In the HPLC section C the protein has a different retention time (early elution) from the standard in section A. This phenomenon could be explained by the high percentage of organic solvents (like CH2Cl2 depicted in the figure) that carried through the protein complex with nonactine causing early elution.

Caco-2 cells [2] = conditions: insulin at same concentration in physiological buffer, without formulation agent and organic vehicle
Procedure: Should insulin pass through the Caco-2 cell lines, it is found in the receiving chamber.
Insulin Concentration: 3 mg in 125 μl of olive oil/Peg, 92%/8%, v/v
Vehicle: olive oil/Peg (esaethylenglycol)
Positive control: Ibuprofen: 1 mg in 125 μl physiological buffer.
After vortex, 50 μl of the final mixture are added to the caco-2 cell well in double.
Active Sample Preparation (Insulin with Vehicle & Formulation Agent)
After MeOH evaporation, 115 μl of olive oil and 10 μl Peg are added. Vortex for 2-3 minutes. After vortex, 50 μl of the final mixture are added to the Caco-2 cell well in double.
Control (Insulin with Formulation Agent in Physiological Buffer; No Organic or Non-Aqueous Vehicle Present)
Vortex the mixture for 2-3 minutes. […] Then methanol is evaporated and 125 μl of physiological buffer are added; 50 μl of the above solution are added to the Caco-2 cell well in double.

Caco-2 cells [3] = conditions: insulin incorporated into liposome according to Sigma preparation, no 18-crown-6
Procedure: Liposomes were purchased from Sigma-Aldrich (pre-liposome formulation 8; product No. L3531) and used according to the following procedure. Alternatively, same ingredients were purchased by other suppliers (Avanti), and liposomes were prepared according the procedure indicated by Sigma. Insulin passage was measured by HPLC injection of samples in the receiving chamber.
The organic mixture containing insulin was mixed with the lipid mixture of Sigma, then solvent was evaporated or lyophilized. Water addition generated liposomes that were tested for delivery in Caco-2 cells.

[4] = dose 2: 2.6 mg desalted human insulin + 60 mg 18-crown-6 in about 310 ul mixture
Procedure: Dose 2: 2.6 mg of desalted human insulin with TFA counter-ions are mixed with 60 mg of 18-crown-6. To these solids, 250 μl of a mixture is added, the mixture being composed of 200 μl of a 50% mixture of Propylen glycole and 50% glycerol, 200 mg of mono-decanoyl-glycerol and 100 μl of Cremofor EL. The final volume is approximately 310 μl.

mice = assay: In vivo insulin delivery in mice by sub-lingual administration, blood glucose decrease; conditions: dose 1, sublingual
Procedure: Dose 1: 0.5 mg of desalted human insulin with TFA counter-ions (corresponds to 0.4 mg of non treated standard insulin) are mixed with 60 mg of 18-crown-6. […] The final volume is approximately 310 μl.
The final volume is approximately 310 μl.
Mice were treated with 6.5 μl of mixture 1 and 2, respectively. In dose 1, each mouse was treated with approximately 10 μg of desalted human insulin with TFA counter-ions (corresponds to 8 μg of non treated standard insulin). In dose 2, each mouse was treated with approximately 52 μg of desalted human insulin with TFA counter-ions (corresponds to 41.6 μg of non treated standard insulin).
Results: Insulin Delivery is Measured by Blood Glucose Decrease.

## C[C@@H]1C[C@H]2CC[C@H](O2)[C@H](C)C(=O)O[C@@H](C)C[C@@H]2CC[C@@H](O2)[C@@H](C)C(=O)O[C@H](C)C[C@H]2CC[C@@H](O2)[C@H](C)C(=O)O[C@@H](C)C[C@@H]2CC[C@@H](O2)[C@@H](C)C(=O)O1 [Nonactine]
[1]; 0.2 mg Rantes in 300 ul DCM/MeOH 70%/30% + 2.0 mg Nonactine, versus water/acetonitrile standard
  presence of protein in HPLC trace of supernatant: presence of the peptide in similar proportion as per the area of the standard
[1]; 0.2 mg Rantes in 300 ul DCM/MeOH 70%/30% + 2.0 mg Nonactine, vortexed
  appearance of the mixture after addition of Nonactine: clear solution

## Insulin: human insulin, previously desalted; with TFA counter-ions in Example 8
Caco-2 cells [2]
  insulin passage across Caco-2 cells: does not cross caco-2 cells
Caco-2 cells [3]
  insulin passage through Caco-2 cells: did not result measurable insulin passage
[4]
  solubility of insulin in the dose mixture: precipitation of insulin occurred
mice; about 10 ug desalted human insulin with 18-crown-6, compared with IP injection
  effect on blood glucose (insulin delivery): close to the effects of IP injection
mice; dose about 7 times the injected control dose
  actual delivery: around 10%

## Rantes: folded protein Rantes, a chemokine
[1]; 0.2 mg Rantes suspended in 300 ul DCM/MeOH 70%/30%, no Nonactine
  presence of protein in HPLC trace of supernatant: no presence of the protein in the chromatogram

Reference: patent US8513188B2, “Formulations comprising cyclic compounds” (priority 2006, dated 2013)
